This note sets out measurements from publication PMC3202057 (Journal of molecular biology, 2011).

Where only a bound is given, the exact number is not on record here.

For this assay, the target named is T1, N-terminal effector PYRIN domain of NLRP12 (residues 1-98) (human, UniProt P59046 1-98).
T1 sequence: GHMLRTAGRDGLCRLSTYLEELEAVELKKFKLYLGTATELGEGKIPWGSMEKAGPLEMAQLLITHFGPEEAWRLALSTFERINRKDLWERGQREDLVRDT
Put plainly: NMR titration.

B1: FAF-1 UBA domain and linker region (residues 1-99) (domain or fragment, UniProt Q9UNN5 1-99, looked up)
chain: MASNMDREMILADFQACTGIENIDEAITLLEQNNWDLVAAINGVIPQENGILQSEYGGETIPGPAFNPASHPASAPTSSSSSAFRPVMPSRQIVERQPR
For B1, the Kd (usually a measure of binding affinity in units of concentration) was no less than 50 µM.

B2: FAF-1 UBA domain (residues 1-57) (domain or fragment, UniProt Q9UNN5 1-57, looked up)
chain: MASNMDREMILADFQACTGIENIDEAITLLEQNNWDLVAAINGVIPQENGILQSEYG
The molecule B2 displayed a Kd of no less than 150 µM.
